This is an account of results in the supplement of paper PMC9112550, “Optimization of the antimicrobial peptide Bac7 by deep mutational scanning” (BMC Biology, 2022).
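Further: peptides expressed intracellularly from a pBAD plasmid library in pooled LB shake-flask culture, induced with 0.3% L-arabinose, DNA abundance read by NGS, three biological replicates, DESeq2 with apeglm shrinkage.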

The data set concerns Escherichia coli TOP10. In words: shrunken log2 fold change of peptide-encoding DNA abundance (4.5 h post-induction vs induction); higher = less antimicrobial activity (less host growth inhibition). The conditions noted are these: time post-induction: 4.5 h; library: site-saturation at positions 5, 18, 19, 20.
As for RRIRWRPPRLPRPRPRPQQQPRP, the “shrunken log2 fold change” value is 0.108.

On to RRIRSRPPRLPRPRPRPVLNPRP, for which the “shrunken log2 fold change” value was -0.169.

In the case of RRIRERPPRLPRPRPRPCNFPRP, the “shrunken log2 fold change” value was -0.125.

Regarding RRIRERPPRLPRPRPRPECPPRP, the “shrunken log2 fold change” value came to 0.0592.

RRIRNRPPRLPRPRPRPNGWPRP: the “shrunken log2 fold change” value was -0.0113.

In the case of RRIRARPPRLPRPRPRPGRGPRP, the “shrunken log2 fold change” value came out at 0.486.

Turning to RRIRERPPRLPRPRPRPSHEPRP, the “shrunken log2 fold change” value is -0.0595.

Turning to RRIRTRPPRLPRPRPRPWLAPRP, the “shrunken log2 fold change” value came out at 0.216.

On to RRIRLRPPRLPRPRPRPGADPRP, for which the “shrunken log2 fold change” value was determined as 0.28.

Take RRIRERPPRLPRPRPRPYWQPRP: the “shrunken log2 fold change” value is -0.172.

For RRIRPRPPRLPRPRPRPTIDPRP, the “shrunken log2 fold change” value is -0.454.

Consider RRIRSRPPRLPRPRPRPSRDPRP, for which the “shrunken log2 fold change” value was -0.0156.

For RRIRNRPPRLPRPRPRPDVLPRP, the “shrunken log2 fold change” value was -0.0481.

Consider RRIRSRPPRLPRPRPRPSVKPRP, for which the “shrunken log2 fold change” value is -0.068.

Turning to RRIRPRPPRLPRPRPRPYWCPRP, the “shrunken log2 fold change” value was -0.272.

For the sequence RRIRTRPPRLPRPRPRPDLDPRP, the “shrunken log2 fold change” value was determined as 0.145.

Regarding RRIRQRPPRLPRPRPRPQEFPRP, the “shrunken log2 fold change” value is -0.0104.

For the sequence RRIRFRPPRLPRPRPRPCEYPRP, the “shrunken log2 fold change” value was -0.000476.

For the sequence RRIRGRPPRLPRPRPRPRWSPRP, the “shrunken log2 fold change” value amounted to 0.754.

Turning to RRIRTRPPRLPRPRPRPNQYPRP, the “shrunken log2 fold change” value was -0.446.

As for RRIRIRPPRLPRPRPRPTWRPRP, the “shrunken log2 fold change” value amounted to 0.274.

Take RRIRQRPPRLPRPRPRPIARPRP: the “shrunken log2 fold change” value was -0.0171.

For RRIRWRPPRLPRPRPRPAGFPRP, the “shrunken log2 fold change” value was determined as 0.272.

Turning to RRIRARPPRLPRPRPRPSLYPRP, the “shrunken log2 fold change” value was 0.0269.

Turning to RRIRKRPPRLPRPRPRPVQCPRP, the “shrunken log2 fold change” value was found to be 0.0223.

Consider RRIRFRPPRLPRPRPRPGVWPRP, for which the “shrunken log2 fold change” value was 0.507.

Take RRIRCRPPRLPRPRPRPKYCPRP: the “shrunken log2 fold change” value was -0.264.

Take RRIRSRPPRLPRPRPRPCQDPRP: the “shrunken log2 fold change” value is -0.0622.

For RRIRYRPPRLPRPRPRPPDIPRP, the “shrunken log2 fold change” value was -0.157.

Turning to RRIRFRPPRLPRPRPRPPFYPRP, the “shrunken log2 fold change” value is -0.462.

As to RRIRWRPPRLPRPRPRPWTAPRP, the “shrunken log2 fold change” value was 0.306.

Regarding RRIRWRPPRLPRPRPRPYCWPRP, the “shrunken log2 fold change” value was -0.127.

As to RRIRTRPPRLPRPRPRPFWWPRP, the “shrunken log2 fold change” value turned out to be 0.299.

For RRIRWRPPRLPRPRPRPLFEPRP, the “shrunken log2 fold change” value came to 0.25.

For RRIRFRPPRLPRPRPRPTAIPRP, the “shrunken log2 fold change” value is -0.0113.

Regarding RRIRGRPPRLPRPRPRPWVDPRP, the “shrunken log2 fold change” value is 0.308.

For RRIRHRPPRLPRPRPRPWIIPRP, the “shrunken log2 fold change” value worked out at 0.00956.

RRIRMRPPRLPRPRPRPCSIPRP: the “shrunken log2 fold change” value is -0.0306.

With RRIRDRPPRLPRPRPRPTPNPRP, the “shrunken log2 fold change” value was 0.272.

Turning to RRIRKRPPRLPRPRPRPQQVPRP, the “shrunken log2 fold change” value is -0.0532.

For RRIRNRPPRLPRPRPRPQDRPRP, the “shrunken log2 fold change” value is 0.0155.

Take RRIRMRPPRLPRPRPRPIEIPRP: the “shrunken log2 fold change” value was -0.0115.

Consider RRIRNRPPRLPRPRPRPTKPPRP, for which the “shrunken log2 fold change” value turned out to be 0.24.

On to RRIRVRPPRLPRPRPRPGMRPRP, for which the “shrunken log2 fold change” value was 0.565.

For the sequence RRIRTRPPRLPRPRPRPDVTPRP, the “shrunken log2 fold change” value was -0.06.

Turning to RRIRHRPPRLPRPRPRPIQIPRP, the “shrunken log2 fold change” value is -0.139.

Regarding RRIRMRPPRLPRPRPRPDMCPRP, the “shrunken log2 fold change” value was 1.86.

Regarding RRIRIRPPRLPRPRPRPTQMPRP, the “shrunken log2 fold change” value is 0.565.

Regarding RRIRHRPPRLPRPRPRPPVEPRP, the “shrunken log2 fold change” value is 0.126.

With RRIRLRPPRLPRPRPRPGNFPRP, the “shrunken log2 fold change” value was -0.122.

Turning to RRIRLRPPRLPRPRPRPLVVPRP, the “shrunken log2 fold change” value is -0.113.

For RRIRRRPPRLPRPRPRPPQWPRP, the “shrunken log2 fold change” value was 0.66.

Consider RRIRVRPPRLPRPRPRPSSWPRP, for which the “shrunken log2 fold change” value is -0.062.

Consider RRIRPRPPRLPRPRPRPAALPRP, for which the “shrunken log2 fold change” value was found to be 0.248.

As to RRIRDRPPRLPRPRPRPMCMPRP, the “shrunken log2 fold change” value worked out at 0.0237.

Turning to RRIRARPPRLPRPRPRPEFYPRP, the “shrunken log2 fold change” value amounted to 0.329.

For the sequence RRIRVRPPRLPRPRPRPQKSPRP, the “shrunken log2 fold change” value was -0.162.

Regarding RRIRVRPPRLPRPRPRPFASPRP, the “shrunken log2 fold change” value came out at 0.0656.

Consider RRIRKRPPRLPRPRPRPKLPPRP, for which the “shrunken log2 fold change” value was 0.244.

In the case of RRIRIRPPRLPRPRPRPVVSPRP, the “shrunken log2 fold change” value is -0.503.

RRIRCRPPRLPRPRPRPKWRPRP: the “shrunken log2 fold change” value was 0.422.

In the case of RRIRARPPRLPRPRPRPCFDPRP, the “shrunken log2 fold change” value stood at 0.191.

For RRIRYRPPRLPRPRPRPQWKPRP, the “shrunken log2 fold change” value was -0.01.

With RRIRWRPPRLPRPRPRPTIKPRP, the “shrunken log2 fold change” value was -0.125.

Take RRIRTRPPRLPRPRPRPYPGPRP: the “shrunken log2 fold change” value is -0.164.

For RRIRPRPPRLPRPRPRPRWSPRP, the “shrunken log2 fold change” value came to 0.108.

Regarding RRIRMRPPRLPRPRPRPPICPRP, the “shrunken log2 fold change” value was 0.292.

Regarding RRIRHRPPRLPRPRPRPSVFPRP, the “shrunken log2 fold change” value is -0.424.

For RRIRLRPPRLPRPRPRPQSCPRP, the “shrunken log2 fold change” value was 0.123.

For the sequence RRIRSRPPRLPRPRPRPPTHPRP, the “shrunken log2 fold change” value was determined as 0.197.

RRIRRRPPRLPRPRPRPHFTPRP: the “shrunken log2 fold change” value is -0.0671.

With RRIRCRPPRLPRPRPRPWTNPRP, the “shrunken log2 fold change” value is -0.0849.

Consider RRIRVRPPRLPRPRPRPVMTPRP, for which the “shrunken log2 fold change” value was found to be 0.0124.

On to RRIRMRPPRLPRPRPRPKIWPRP, for which the “shrunken log2 fold change” value came out at 0.704.

Consider RRIRDRPPRLPRPRPRPCCNPRP, for which the “shrunken log2 fold change” value stood at 0.255.

For the sequence RRIRIRPPRLPRPRPRPVQEPRP, the “shrunken log2 fold change” value was 0.00511.

Turning to RRIRRRPPRLPRPRPRPQWTPRP, the “shrunken log2 fold change” value was found to be 0.31.

Turning to RRIRQRPPRLPRPRPRPKAHPRP, the “shrunken log2 fold change” value is 0.0165.

On to RRIRWRPPRLPRPRPRPHLDPRP, for which the “shrunken log2 fold change” value was -0.0108.

As for RRIRGRPPRLPRPRPRPFVNPRP, the “shrunken log2 fold change” value was -0.0813.

Regarding RRIRFRPPRLPRPRPRPRYEPRP, the “shrunken log2 fold change” value is -0.598.

In the case of RRIRLRPPRLPRPRPRPNALPRP, the “shrunken log2 fold change” value was -0.0646.

With RRIRPRPPRLPRPRPRPNFLPRP, the “shrunken log2 fold change” value is 0.0421.

Regarding RRIRGRPPRLPRPRPRPHMIPRP, the “shrunken log2 fold change” value amounted to 0.0265.

RRIRQRPPRLPRPRPRPPPIPRP: the “shrunken log2 fold change” value worked out at 0.467.

As for RRIRKRPPRLPRPRPRPHVCPRP, the “shrunken log2 fold change” value is -0.00289.

For RRIRNRPPRLPRPRPRPCNSPRP, the “shrunken log2 fold change” value was -0.0484.

Take RRIRRRPPRLPRPRPRPTGNPRP: the “shrunken log2 fold change” value stood at 0.0381.

RRIRSRPPRLPRPRPRPESGPRP: the “shrunken log2 fold change” value is 0.351.

For the sequence RRIRGRPPRLPRPRPRPFIDPRP, the “shrunken log2 fold change” value was determined as 0.585.

As to RRIRERPPRLPRPRPRPLYEPRP, the “shrunken log2 fold change” value was -1.24.
